*1 amine or outer side, *2 acyl side, *3 side chain or, on linkers, in order; H or OH if unused. Where no end group is shown, it is not given here. Side-chain parts run from the residue outwards. [ ]: non-standard residue; d: D form. The star is where a group is joined. γGlu = O=C(O)[C@H](CCC(=O)[*:2])N[*:1]; Palmitoyl = CCCCCCCCCCCCCCCC(=O)*; Aib = CC(C)(N)C(=O)O
Legend:
Test in all cases: cell-based or functional assay
[1] = biological target: human GLP-1 receptor (human, UniProt P43220 24-463)
[2] = biological target: T1, human GIP receptor (human, UniProt P48546 22-466)
T1 sequence (looked up): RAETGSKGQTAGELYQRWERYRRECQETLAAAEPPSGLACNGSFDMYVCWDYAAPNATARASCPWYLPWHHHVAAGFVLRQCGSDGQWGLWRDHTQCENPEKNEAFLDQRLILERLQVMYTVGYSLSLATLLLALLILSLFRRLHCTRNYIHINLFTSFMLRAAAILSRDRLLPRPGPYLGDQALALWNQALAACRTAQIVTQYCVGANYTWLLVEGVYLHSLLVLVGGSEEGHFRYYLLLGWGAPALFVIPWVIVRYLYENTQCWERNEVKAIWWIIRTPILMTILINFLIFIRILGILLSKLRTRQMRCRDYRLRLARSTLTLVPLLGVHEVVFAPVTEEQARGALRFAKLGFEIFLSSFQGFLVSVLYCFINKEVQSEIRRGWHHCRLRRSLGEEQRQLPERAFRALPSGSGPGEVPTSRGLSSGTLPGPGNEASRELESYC

[3] = biological target: human glucagon receptor (human, UniProt P47871 26-477)
human glucagon receptor, sequence (P47871 26-477): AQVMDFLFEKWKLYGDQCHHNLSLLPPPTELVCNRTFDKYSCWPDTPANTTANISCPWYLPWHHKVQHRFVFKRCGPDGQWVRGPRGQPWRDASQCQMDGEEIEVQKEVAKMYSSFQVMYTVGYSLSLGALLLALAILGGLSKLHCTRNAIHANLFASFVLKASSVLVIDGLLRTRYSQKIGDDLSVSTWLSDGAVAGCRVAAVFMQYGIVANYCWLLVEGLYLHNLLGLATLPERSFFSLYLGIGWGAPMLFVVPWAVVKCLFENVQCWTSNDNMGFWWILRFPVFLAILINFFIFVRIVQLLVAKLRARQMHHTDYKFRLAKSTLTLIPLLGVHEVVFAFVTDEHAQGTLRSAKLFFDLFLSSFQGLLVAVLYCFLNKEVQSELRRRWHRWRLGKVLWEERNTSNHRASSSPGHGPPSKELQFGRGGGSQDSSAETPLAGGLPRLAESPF

| Binder | EC50 hGLP-1 R [pM] [1] [pM] | EC50 hGIP R [pM] [2] [pM] | EC50 hGLUC R [pM] [3] [pM] |
| --- | --- | --- | --- |
| Y[Aib]QGTFTSDLSIQK([γGlu-Palmitoyl])DSRAA[Aib]DFIEWLKAGGPSSGAPPPS-NH2 (N-terminus assumed; SMILES CCCCCCCCCCCCCCCC(=O)N[C@@H](CCC(=O)NCCCC[C@H](NC(=O)[C@H](CCC(N)=O)NC(=O)[C@@H](NC(=O)[C@H](CO)NC(=O)[C@H](CC(C)C)NC(=O)[C@H](CC(=O)O)NC(=O)[C@H](CO)NC(=O)[C@@H](NC(=O)[C@H](Cc1ccccc1)NC(=O)[C@@H](NC(=O)CNC(=O)[C@H](CCC(N)=O)NC(=O)C(C)(C)NC(=O)[C@@H](N)Cc1ccc(O)cc1)[C@@H](C)O)[C@@H](C)O)[C@@H](C)CC)C(=O)N[C@@H](CC(=O)O)C(=O)N[C@@H](CO)C(=O)N[C@@H](CCCNC(=N)N)C(=O)N[C@@H](C)C(=O)N[C@@H](C)C(=O)NC(C)(C)C(=O)N[C@@H](CC(=O)O)C(=O)N[C@@H](Cc1ccccc1)C(=O)N[C@H](C(=O)N[C@@H](CCC(=O)O)C(=O)N[C@@H](Cc1c[nH]c2ccccc12)C(=O)N[C@@H](CC(C)C)C(=O)N[C@@H](CCCCN)C(=O)N[C@@H](C)C(=O)NCC(=O)NCC(=O)N1CCC[C@H]1C(=O)N[C@@H](CO)C(=O)N[C@@H](CO)C(=O)NCC(=O)N[C@@H](C)C(=O)N1CCC[C@H]1C(=O)N1CCC[C@H]1C(=O)N1CCC[C@H]1C(=O)N[C@@H](CO)C(N)=O)[C@@H](C)CC)C(=O)O) [SEQ ID NO: 30] | 12 | 22.1 | 226 |
| Y[Aib]EGTFTSDLSIQK([γGlu-Palmitoyl])EKRAA[Aib]DFIEWLKNTGPSSGAPPPS-NH2 (N-terminus assumed; SMILES CCCCCCCCCCCCCCCC(=O)N[C@@H](CCC(=O)NCCCC[C@H](NC(=O)[C@H](CCC(N)=O)NC(=O)[C@@H](NC(=O)[C@H](CO)NC(=O)[C@H](CC(C)C)NC(=O)[C@H](CC(=O)O)NC(=O)[C@H](CO)NC(=O)[C@@H](NC(=O)[C@H](Cc1ccccc1)NC(=O)[C@@H](NC(=O)CNC(=O)[C@H](CCC(=O)O)NC(=O)C(C)(C)NC(=O)[C@@H](N)Cc1ccc(O)cc1)[C@@H](C)O)[C@@H](C)O)[C@@H](C)CC)C(=O)N[C@@H](CCC(=O)O)C(=O)N[C@@H](CCCCN)C(=O)N[C@@H](CCCNC(=N)N)C(=O)N[C@@H](C)C(=O)N[C@@H](C)C(=O)NC(C)(C)C(=O)N[C@@H](CC(=O)O)C(=O)N[C@@H](Cc1ccccc1)C(=O)N[C@H](C(=O)N[C@@H](CCC(=O)O)C(=O)N[C@@H](Cc1c[nH]c2ccccc12)C(=O)N[C@@H](CC(C)C)C(=O)N[C@@H](CCCCN)C(=O)N[C@@H](CC(N)=O)C(=O)N[C@H](C(=O)NCC(=O)N1CCC[C@H]1C(=O)N[C@@H](CO)C(=O)N[C@@H](CO)C(=O)NCC(=O)N[C@@H](C)C(=O)N1CCC[C@H]1C(=O)N1CCC[C@H]1C(=O)N1CCC[C@H]1C(=O)N[C@@H](CO)C(N)=O)[C@@H](C)O)[C@@H](C)CC)C(=O)O) [SEQ ID NO: 27] | 4 | 6.7 | 6390 |
| Y[Aib]EGTFTSDLSIQK([γGlu-Palmitoyl])EKRAAQEFIEWLKNTGPSSGAPPPS-NH2 (N-terminus assumed; SMILES CCCCCCCCCCCCCCCC(=O)N[C@@H](CCC(=O)NCCCC[C@H](NC(=O)[C@H](CCC(N)=O)NC(=O)[C@@H](NC(=O)[C@H](CO)NC(=O)[C@H](CC(C)C)NC(=O)[C@H](CC(=O)O)NC(=O)[C@H](CO)NC(=O)[C@@H](NC(=O)[C@H](Cc1ccccc1)NC(=O)[C@@H](NC(=O)CNC(=O)[C@H](CCC(=O)O)NC(=O)C(C)(C)NC(=O)[C@@H](N)Cc1ccc(O)cc1)[C@@H](C)O)[C@@H](C)O)[C@@H](C)CC)C(=O)N[C@@H](CCC(=O)O)C(=O)N[C@@H](CCCCN)C(=O)N[C@@H](CCCNC(=N)N)C(=O)N[C@@H](C)C(=O)N[C@@H](C)C(=O)N[C@@H](CCC(N)=O)C(=O)N[C@@H](CCC(=O)O)C(=O)N[C@@H](Cc1ccccc1)C(=O)N[C@H](C(=O)N[C@@H](CCC(=O)O)C(=O)N[C@@H](Cc1c[nH]c2ccccc12)C(=O)N[C@@H](CC(C)C)C(=O)N[C@@H](CCCCN)C(=O)N[C@@H](CC(N)=O)C(=O)N[C@H](C(=O)NCC(=O)N1CCC[C@H]1C(=O)N[C@@H](CO)C(=O)N[C@@H](CO)C(=O)NCC(=O)N[C@@H](C)C(=O)N1CCC[C@H]1C(=O)N1CCC[C@H]1C(=O)N1CCC[C@H]1C(=O)N[C@@H](CO)C(N)=O)[C@@H](C)O)[C@@H](C)CC)C(=O)O) [SEQ ID NO: 26] | 4.9 | 19.7 | 8510 |
| Y[Aib]QGTFTSDLSIQK([γGlu-Palmitoyl])DSRAAQEFIEWLKAGGPSSGAPPPS-NH2 (N-terminus assumed; SMILES CCCCCCCCCCCCCCCC(=O)N[C@@H](CCC(=O)NCCCC[C@H](NC(=O)[C@H](CCC(N)=O)NC(=O)[C@@H](NC(=O)[C@H](CO)NC(=O)[C@H](CC(C)C)NC(=O)[C@H](CC(=O)O)NC(=O)[C@H](CO)NC(=O)[C@@H](NC(=O)[C@H](Cc1ccccc1)NC(=O)[C@@H](NC(=O)CNC(=O)[C@H](CCC(N)=O)NC(=O)C(C)(C)NC(=O)[C@@H](N)Cc1ccc(O)cc1)[C@@H](C)O)[C@@H](C)O)[C@@H](C)CC)C(=O)N[C@@H](CC(=O)O)C(=O)N[C@@H](CO)C(=O)N[C@@H](CCCNC(=N)N)C(=O)N[C@@H](C)C(=O)N[C@@H](C)C(=O)N[C@@H](CCC(N)=O)C(=O)N[C@@H](CCC(=O)O)C(=O)N[C@@H](Cc1ccccc1)C(=O)N[C@H](C(=O)N[C@@H](CCC(=O)O)C(=O)N[C@@H](Cc1c[nH]c2ccccc12)C(=O)N[C@@H](CC(C)C)C(=O)N[C@@H](CCCCN)C(=O)N[C@@H](C)C(=O)NCC(=O)NCC(=O)N1CCC[C@H]1C(=O)N[C@@H](CO)C(=O)N[C@@H](CO)C(=O)NCC(=O)N[C@@H](C)C(=O)N1CCC[C@H]1C(=O)N1CCC[C@H]1C(=O)N1CCC[C@H]1C(=O)N[C@@H](CO)C(N)=O)[C@@H](C)CC)C(=O)O) [SEQ ID NO: 29] | 7 | 127 | 46.8 |
| Y[Aib]EGTFTSDLSIQK([γGlu-Palmitoyl])ESRAAQEFIEWLKNTGPSSGAPPPS-NH2 (N-terminus assumed; SMILES CCCCCCCCCCCCCCCC(=O)N[C@@H](CCC(=O)NCCCC[C@H](NC(=O)[C@H](CCC(N)=O)NC(=O)[C@@H](NC(=O)[C@H](CO)NC(=O)[C@H](CC(C)C)NC(=O)[C@H](CC(=O)O)NC(=O)[C@H](CO)NC(=O)[C@@H](NC(=O)[C@H](Cc1ccccc1)NC(=O)[C@@H](NC(=O)CNC(=O)[C@H](CCC(=O)O)NC(=O)C(C)(C)NC(=O)[C@@H](N)Cc1ccc(O)cc1)[C@@H](C)O)[C@@H](C)O)[C@@H](C)CC)C(=O)N[C@@H](CCC(=O)O)C(=O)N[C@@H](CO)C(=O)N[C@@H](CCCNC(=N)N)C(=O)N[C@@H](C)C(=O)N[C@@H](C)C(=O)N[C@@H](CCC(N)=O)C(=O)N[C@@H](CCC(=O)O)C(=O)N[C@@H](Cc1ccccc1)C(=O)N[C@H](C(=O)N[C@@H](CCC(=O)O)C(=O)N[C@@H](Cc1c[nH]c2ccccc12)C(=O)N[C@@H](CC(C)C)C(=O)N[C@@H](CCCCN)C(=O)N[C@@H](CC(N)=O)C(=O)N[C@H](C(=O)NCC(=O)N1CCC[C@H]1C(=O)N[C@@H](CO)C(=O)N[C@@H](CO)C(=O)NCC(=O)N[C@@H](C)C(=O)N1CCC[C@H]1C(=O)N1CCC[C@H]1C(=O)N1CCC[C@H]1C(=O)N[C@@H](CO)C(N)=O)[C@@H](C)O)[C@@H](C)CC)C(=O)O) [SEQ ID NO: 25] | 9.5 | 73.6 | 20500 |
| Y[Aib]QGTFTSDLSIQK([γGlu-Palmitoyl])DKRAAQDFIEWLKAGGPSSGAPPPS-NH2 (N-terminus assumed; SMILES CCCCCCCCCCCCCCCC(=O)N[C@@H](CCC(=O)NCCCC[C@H](NC(=O)[C@H](CCC(N)=O)NC(=O)[C@@H](NC(=O)[C@H](CO)NC(=O)[C@H](CC(C)C)NC(=O)[C@H](CC(=O)O)NC(=O)[C@H](CO)NC(=O)[C@@H](NC(=O)[C@H](Cc1ccccc1)NC(=O)[C@@H](NC(=O)CNC(=O)[C@H](CCC(N)=O)NC(=O)C(C)(C)NC(=O)[C@@H](N)Cc1ccc(O)cc1)[C@@H](C)O)[C@@H](C)O)[C@@H](C)CC)C(=O)N[C@@H](CC(=O)O)C(=O)N[C@@H](CCCCN)C(=O)N[C@@H](CCCNC(=N)N)C(=O)N[C@@H](C)C(=O)N[C@@H](C)C(=O)N[C@@H](CCC(N)=O)C(=O)N[C@@H](CC(=O)O)C(=O)N[C@@H](Cc1ccccc1)C(=O)N[C@H](C(=O)N[C@@H](CCC(=O)O)C(=O)N[C@@H](Cc1c[nH]c2ccccc12)C(=O)N[C@@H](CC(C)C)C(=O)N[C@@H](CCCCN)C(=O)N[C@@H](C)C(=O)NCC(=O)NCC(=O)N1CCC[C@H]1C(=O)N[C@@H](CO)C(=O)N[C@@H](CO)C(=O)NCC(=O)N[C@@H](C)C(=O)N1CCC[C@H]1C(=O)N1CCC[C@H]1C(=O)N1CCC[C@H]1C(=O)N[C@@H](CO)C(N)=O)[C@@H](C)CC)C(=O)O) [SEQ ID NO: 28] | 3.2 | 10.9 | 9.9 |

— US20140206609A1 (Sanofi, published 2014)
